Test: Log P octanol/water of INS and INS-SDS complexes
Type: physicochemical
Settings: shake-flask octanol/water (1:1), 1 mg in 1 mL, 37 °C, 500 rpm, 12 h, centrifugation, INS quantified in each phase by HPLC (214 nm); means, n = 3
Description: Log Poctanol/water of INS and INS-SDS complexes was determined using a previously described method with minor modification. Briefly, 1 mg of each product was added to 1 mL of octanol/water (1:1) (Sigma-Aldrich Chemie GmbH, Vienna, Austria). The mixtures were incubated at 37 °C while stirring at 500 rpm for 12 h. Thereafter, samples were centrifuged at 13,400 rpm for 10 min. Aliquots of 100 μL were withdrawn from each phase (octanol and water) and analyzed via HPLC after dilution with 300 μL of methanol (Sigma-Aldrich Chemie GmbH, Vienna, Austria) containing 0.1% (v/v) TFA. Log P was calculated according to the following equation: Log P=Log(Concentration of INS in octanol phase/Concentration of INS in water phase)

Human recombinant insulin
log Poctanol/water: −1.8
